Data published in patent US9394371B2, “Antibody-mediated disruption of quorum sensing in bacteria” (The Scripps Research Institute, priority 2007, dated 2016).
Like-named read-outs stand apart in the source and are kept apart here.

Experiments:
AIP-1 = test: Competition ELISA (free native AIP against hapten-BSA coated plates); type: binding, S. aureus; settings: AP4-BSA coated plates
AIP-2 = test: as above; type: binding, S. aureus; settings: AP4-BSA coated plates
AIP-3 = test: as above; type: binding, S. aureus
Procedure: (§1) The optimal concentrations of the AP4-BSA conjugate as well as of each mAb were determined. 96 well ELISA plates were coated with the appropriate amount of AP4-BSA conjugate respectively. The plates were blocked with 4% skim milk, washed and mAbs were added at the predetermined optimal concentration. The plates were washed and free antigen, i.e. the native AIPs 1-4, was added to the wells in a concentration series starting at 100 μM. The plate was incubated for 1 hour at 37° C., thoroughly washed, and goat anti-mouse-horseradish peroxidase (HRP) conjugate (Pierce, Rockford, Ill.) was added. After an incubation period of 1 hour at RT, the plate was thoroughly washed again and the HRP substrate (TMB substrate kit; Pierce) was added, the reaction was allowed to develop for 15 minute and stopped by the addition of 2 M H2SO4. The absorbance at 450 nm was read and the values plotted using GraFit (Erithacus Software Ltd). The free antigen concentration at which the absorbance value is 50% of the maximum absorbance was considered the Kd of the antibody for its antigen.
as §1, with “For the competition ELISA analysis, the optimal concentrations” for “The optimal concentrations”, “of the AP1-BSA, AP3-BSA, or AP4-BSA conjugate,” for “of the AP4-BSA conjugate”, “or AP4-BSA conjugate, as well” for “the AP4-BSA conjugate as well”, “amount of AP1-BSA, AP3-BSA, or AP4-BSA conjugate” for “amount of AP4-BSA conjugate”, “blocked with 4 v % skim milk,” for “blocked with 4% skim milk,”, “for 15 minutes and stopped” for “for 15 minute and stopped”

AIP-4 = test: as above; type: binding, S. aureus
Procedure: as §1
as §1, with “For the competition ELISA analysis, the optimal concentrations” for “The optimal concentrations”, “of the AP1-BSA, AP3-BSA, or AP4-BSA conjugate,” for “of the AP4-BSA conjugate”, “or AP4-BSA conjugate, as well” for “the AP4-BSA conjugate as well”, “amount of AP1-BSA, AP3-BSA, or AP4-BSA conjugate” for “amount of AP4-BSA conjugate”, “blocked with 4 v % skim milk,” for “blocked with 4% skim milk,”, “for 15 minutes and stopped” for “for 15 minute and stopped”

S. aureus RN4850 [1] = type: cell-based
S. aureus Wood 46 = type: cell-based
S. aureus RN4850 [2] = type: cell-based; settings: FIG. 3B
[3] = tested on: S. aureus RN4850, NRS168 and Wood 46; type: cell-based; settings: 24-hour growth period; FIG. 4B
S. aureus RN4850 [4] = test: Static biofilm analysis (crystal violet); type: cell-based; settings: antibody 0.2 mg/mL, FIG. 4C
[5] = tested on: agr QS system in S. aureus RN4850; type: cell-based
Jurkat cells = test: S. aureus supernatant-induced PARP cleavage (apoptosis), Western blot; type: cell-based, Human; settings: 4 hours, FIG. 5
S. aureus RN4850 [6] = test: Passive immunization against lethal S. aureus challenge; type: in vivo, SKH1 mice; settings: antibody i.p. 2 hours before 3×10^8 S. aureus RN4850 i.p.; FIG. 8
Procedure: FIG. 8 illustrate survival data obtained from passive immunization of mice with AP4-24H11 against S. aureus infection. […] The numbers in parenthesis show number of survivors/number per group. The log rank statistic, p=0.001; n=6 for each group.
S. aureus RN4850 were stored at −80° C. in 20% glycerol/BHI medium, thawed and grown on BHI-agar plates overnight, and three separate colonies sampled to inoculate 2 mL CYGP medium. The inoculum culture was maintained 1 hour at 35° C. without shaking, followed by shaking at 200 rpm for 3 hours. Aliquots of the freshly grown inoculum culture were transferred to 5 mL CYGP medium in 50 mL conical polypropylene tubes (1/20 dilution) followed by shaking at 200 rpm, 35° C. for 3 hours. The bacteria were pelleted by centrifugation at 3,000 rpm (1300×G) for 10 minutes, 4° C. […]
Mab AP4-24H11, isotype-matched control IgG (1 mg each) or DPBS was administered i.p. in DPBS to SKH1 mice (6-9 weeks old; 6 animals per treatment group) followed two hours later by 0.5 mL DPBS^− i.p. containing 3×10^8 S. aureus. The mice were monitored several times on the day of injection and twice each day on subsequent days, observing ambulation, alertness, response to handling and skin temperature measured by infrared thermometry (Raytek MiniTemp MT4) using a 1 cm diameter infrasternal skin site. […]

S. aureus RN4850 [7] = test: Dermal infection model in mice (abscess formation); settings: for S. aureus-induced skin injury: flank injection
Procedure: Additional control animals received 200 μL intradermal injections containing Cytodex beads or beads plus antibody. After injections were made the mice were monitored at least three times each day over a period of 4-7 days. At the conclusion of the monitoring period the mice were euthanized and tissues harvested for bacteriologic and histologic analysis.
SKH1 euthymic hairless mice, 6-8 weeks old were obtained from Charles River Laboratories and housed in the biocontainment vivarium for one week before use in experiments. […] Cytodex 1 beads (GE Healthcare 17-0448-01) were suspended (1 gram in 50 mL) in Dulbecco's Phosphate Buffered Saline without calcium/magnesium (Gibco) overnight at 20° C. The supernatant was decanted and the beads washed three times by suspension in DPBS and 1 G sedimentation followed by autoclaving (121° C., 15 psi, 15 minutes). Staphylococcus aureus RN4850 (AIP4) was grown from frozen stock (BHI+20% glycerol) on brain heart infusion agar plates 35° C. overnight. Three representative colonies were combined to inoculate 2 mL CYGP broth, and after overnight incubation without shaking, 0.25 mL of the culture was used to inoculate 5 mL of CYGP followed by incubation at 35° C., 200 rpm for 3 hours. The culture was centrifuged 1,300×G at 4° C. for 20 minutes, the supernatant poured off, and the bacterial pellet was suspended in 1 mL DPBS without calcium/magnesium. The SKH1 received 200 μL intradermal flank injections containing S. aureus (1×10^7 or 1×10^8 bacteria), 4 μL packed volume Cytodex beads, DPBS, anti-AIP4 antibody or control IgG (0.6 or 0.06 mg). Additional control animals received 200 μL intradermal injections containing Cytodex beads or beads plus antibody. After injections were made the mice were monitored at least three times each day over a period of 4-7 days. At the conclusion of the monitoring period the mice were euthanized and tissues harvested for bacteriologic and histologic analysis.
Subcutaneous injections of bacterial suspension or vehicle control were made in the flank of SKH1 hairless mice followed by close monitoring over seven days.

[8] = AP4 Sups, competing hybridomas re-tested, average, read-out: AIP1 wt
[9] = selected AP4 mAbs, average of at least two measurements, read-out: Binding constant, AIP-1
[10] = selected AP4 mAbs, average of at least two measurements, read-out: Binding constant, AIP-2
[11] = selected AP4 mAbs, average of at least two measurements, read-out: Binding constant, AIP-3
[12] = AP4 Sups, AP4-BSA coated plates, competing hybridomas re-tested, average, read-out: AIP4 wt
[13] = selected AP4 mAbs, AP4-BSA coated plates, average of at least two measurements, read-out: Binding constant, AIP-4

B1: AP4-24H11: murine anti-AIP-4 monoclonal antibody; VH SEQ ID NO: 20, VL SEQ ID NO: 148 (antibody, V domains shown)
VH: EVKPQESGPGLVKPSQSLSLTCTVTGYSITSNYAWNWIRQFPGNKLEWMGFISSYGTTTYNPSLKSRFSITRDTSKNQFFLQLHSVTIEDTGTYFCTREGDYWGQGTTLTVSS
VL: DIVMTQATLSLPVSLGDQASISCRSSQRLVPSNGNIYLHWFLQKPGQSPKLLIYKLSSRFSGVPDRFSGSGSGTDFTLKISRVESEDLGIYFCSQTTHVPYTFGGGTKLEIK
modifications: Murine
Kd (AIP-1; [8]): ~5 µM
Kd (AIP-1; [9]): ~5 µM
Kd (AIP-2; AP4 Sups, read-out: AIP2 wt): > 25 µM
Kd (AIP-2; [10]): > 25 µM
Kd (AIP-3; AP4 Sups, read-out: AIP3 wt): > 25 µM
Kd (AIP-3; [11]): > 25 µM
Kd (AIP-4; [12]): ~0.098 µM
Kd (AIP-4; [13]): ~0.09 µM
exoprotein expression/secretion (SDS-PAGE) (S. aureus RN4850 [1]): affects the expression and/or secretion of S. aureus exoproteins
hemolysins secretion (α-hemolysin western analysis) (S. aureus RN4850 [1]): clear reduction in hemolysins secretion
protein A expression (Western blot) (S. aureus RN4850 [1]; 20-24 hours): significantly increased
α-hemolysin expression (Western blot) (S. aureus RN4850 [1]; 20-24 hours): reduce the α-hemolysin expression
α-hemolysin production (Western blot) (S. aureus Wood 46): notable decrease in α-hemolysin production
hemolytic activity of treated supernatant on blood agar plates (S. aureus RN4850 [2]): no hemolytic activity was observed
growth of S. aureus in presence of antibody [3]: no significant growth changes
static biofilm formation (S. aureus RN4850 [4]): increased biofilm formation
eta mRNA fold-change [5]: −8.1±1 fold
hla mRNA fold-change [5]: −5.2±3.1 fold
rnaIII mRNA fold-change [5]: −77±48 fold
saeR mRNA fold-change [5]: +1.4±0.4 fold
sarA mRNA fold-change [5]: −2.1±0.6 fold
spa mRNA fold-change [5]: +5.7±3.6 fold
decrease of eta transcription ([5]; RN4850): ≈ 10 fold
elevation of spa transcription ([5]; RN4850): 3 to 5 fold
suppression of hla transcription ([5]; RN4850): 3 to 5 fold
reduction of rnaIII transcriptional level ([5]; RN4850, stationary growth phase): > 50 fold
change in saeR transcription ([5]; RN4850, no significant changes): ≤ 2 fold
change in sarA transcription ([5]; RN4850, no significant changes): ≤ 2 fold
PARP cleavage induced by RN4850 supernatant (Jurkat cells; supernatant (1%) of culture grown with antibody): prevented RN4850 supernatant (1%)-induced PARP cleavage
PARP cleavage induced by Wood 46 supernatant (Jurkat cells; supernatant of culture grown with antibody): partially inhibited the effect of Wood 46 supernatant
survivors/number per group through the 8-day observation period (S. aureus RN4850 [6]): 6/6
condition of mice injected with PBS/Cytodex containing antibody, no bacteria (S. aureus RN4850 [7]; 0.6 mg antibody, occasional local induration, FIG. 7D): remained normal
S. aureus-induced skin injury (S. aureus RN4850 [7]; 10^8 bacteria with 0.06 mg antibody): not protective
S. aureus-induced skin injury (S. aureus RN4850 [7]; 10^8 bacteria with 0.6 mg antibody, 7 day observation): skin injury was abrogated

B2: AP4-29E10: murine monoclonal antibody raised against AP4 lactone hapten (antibody, V domains shown)
VH: EVQLQQSGPELEKPGASVKISCKASGHSFTGYNMNWVKQSNDKSLEWIGNIAPYYGVTAYNQKFKGKATLTGDKSSSTAYMQLKSLASEDSAVYYCVLDTSGYASWGQGTLVTVSA
VL: DIVMTQATASLTVSLGQRATISCRASKSVSTSGYSYMHWYQQKPGQPPKLLIYLASNLESGVPARFSGSGSGTDFTLNIHPVEEEDAATYYCQHSREVPYTFGGGTKLELK
Kd (AIP-1; [8]): ~3 µM
Kd (AIP-1; [9]): ~3 µM
Kd (AIP-2; AP4 Sups, read-out: AIP2 wt): > 25 µM
Kd (AIP-2; [10]): > 25 µM
Kd (AIP-3; AP4 Sups, read-out: AIP3 wt): > 25 µM
Kd (AIP-3; [11]): > 25 µM
Kd (AIP-4; [12]): ~0.024 µM
Kd (AIP-4; AP4 Sups, tested 5 different times, read-out: AIP4 Kd, variability over 5 different tests): 0.002 to 0.11 µM
Kd (AIP-4; [13]): ~0.024 µM

B3: AP4-4-20: anti-AIP4 human scFv from phage display, expressed in E. coli; probably AP4-20, SEQ ID NO: 53 (protein, listed as Homo sapiens)
scFv: QVQLQQSGAGLLRPSETLSLTCGLYGGSFSGHYWNWIRQSPEKGLVWIGEITHSGTTNYNPSLKSRVITSVDTSKNQYSLKLSFVTPADTAVYYCARGDYYGYWYFDLWGRGTLVTVSSGGGGSGGGGSGGGGSQSVLTQPPSVPVAPGQKVTISCSGSSSNIGNNYVSWYQQLPGTAPKLLIYDTNKRPSGIPDRFAGSKSGTSATLGITGLQTGDEADYYCGTWDSSLSAGVFGGGTKLTVL
hemolysins secretion (α-hemolysin western analysis) (S. aureus RN4850 [1]): clear reduction in hemolysins secretion
